In PMC6321292, “Comparative Transcriptomics Analysis for Gene Mining and Identification of a Cinnamyl Alcohol Dehydrogenase Involved in Methyleugenol Biosynthesis from Asarum sieboldii Miq” (Molecules, 2018):

How the values were obtained:
Experiment in all cases: purified protein
Format in all cases: biochemical, Asarum sieboldii
Details in all cases: 0.5 mM NADPH, 50 mM Tris-HCl pH 7.5, 2 mM DTT, 30 °C
[1] = substrate: COc1cc(/C=C/C=O)cc(OC)c1O
[2] = substrate: COc1cc(/C=C/C=O)ccc1O
[3] = substrate: O=C/C=C/c1ccc(O)cc1

B1: AsCAD5 (Asarum sieboldii) (protein)
chain: MSNQSGTDNCLGWAARDPSGILSPHSFSRRSIGSDDVSLKITHCGVCYADVAWTRNKVGDSMYPLVPGHEIVGIVQEVGSDVNRFKIGDHVGVGTYVNSCRECVYCKDKLEVVCQKGPTLTFNSLDVDGTITKGGYSSHIVVNERYCYRIPDGYPLVSAAPLLCAGITVYAPMMRHKMNQPGKSLGVIGLGGLGHMAVKFGKAFGLNVTVFSTSESKKEEALKLLGADRFVISSDKKQMEGVMKSLDFIIDTASGDHPFDPYMALLKTTGILVLVGFPSEVKFNPGSLILGLRTLSGSVTGGTKDTQEMLEFCAANKIYPEIELINIEYINEALERLINREVKYRFVIDIENSLK
notes: full ORF 1068 bp (about 355 residues), pMAL-C5X MBP fusion in E. coli Rosetta (DE3), MBP tag removed by Factor Xa, ca. 40 kDa
With B1 the Km [1] was 35.02 ± 8.043 µM, the Vmax [1] was 26.9 µmol/min/mg and the kcat [1] was 291 s⁻¹. It also gave a kcat/Km [1] of 8.3e+06 M⁻¹ s⁻¹, a Km [2] of 27.32 ± 6.186 µM and a Vmax [2] of 20.5 µmol/min/mg. For the same protein, the kcat [2] was 222 s⁻¹, the kcat/Km [2] was 8.12e+06 M⁻¹ s⁻¹ and the Km [3] was 45.52 ± 8.888 µM. The Vmax [3] was 23 µmol/min/mg, the kcat [3] was 249 s⁻¹ and the kcat/Km [3] was 5.47e+06 M⁻¹ s⁻¹.
